T1: YefM (antitoxin; in heterohexamer, YoeB2-YefM4);YoeB (toxin; in heterohexamer, YoeB2-YefM4) (Staphylococcus aureus …, UniProt Q2G285;Q2G286 1-83;1-88, |)
T1 sequence 1: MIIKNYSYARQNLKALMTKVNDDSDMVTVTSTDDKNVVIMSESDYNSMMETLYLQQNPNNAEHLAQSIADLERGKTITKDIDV
T1 sequence 2: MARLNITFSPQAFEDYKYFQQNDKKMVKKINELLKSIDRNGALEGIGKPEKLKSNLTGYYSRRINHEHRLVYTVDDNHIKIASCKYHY

T2: YefM antitoxin without tag (pET22b-yefM), as in the heterohexamer (S. aureus (NCTC8325 strain), UniProt A0A0B4ND47 1-83)
T2 sequence (looked up): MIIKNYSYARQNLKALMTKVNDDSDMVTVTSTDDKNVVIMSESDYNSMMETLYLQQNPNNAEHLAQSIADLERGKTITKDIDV


Key:
[1] = molecular target: the molecule itself; assay: SEC-MALS
[2] = molecular target: T1, YefM (antitoxin; in heterohexamer, …); assay: ITC
[3] = molecular target: T2, YefM antitoxin without tag …; assay: SEC-MALS

Row | Binder | binding result [2] | further results
1 | YefM antitoxin, expressed alone (natural protein, S. aureus (NCTC8325 strain), UniProt A0A0B4ND47 1-83, looked up) MIIKNYSYARQNLKALMTKVNDDSDMVTVTSTDDKNVVIMSESDYNSMMETLYLQQNPNNAEHLAQSIADLERGKTITKDIDV | – | stoichiometry N [1]: 2
2 | promoter core mutant (ATTGTACA to ATTTTAAA) (dsDNA) DNA 1: TTATTTTAAAGATATTTTTAAAATTG DNA 2: CAATTTTAAAAATATCTTTAAAATAA | no binding | –
3 | promoter flank mutant (ATTGTACA to AGCGTACG) (dsDNA) DNA 1: TTAGCGTACGGATATGCGTACGCTTG DNA 2: CAAGCGTACGCATATCCGTACGCTAA | no binding | –
4 | YoeB toxin with N-terminal 6xHis tag (pET28a-yoeB) (natural protein) MARLNITFSPQAFEDYKYFQQNNKKMVKKINELLKSIDRNGALEGIGKPEKLKSNLTGYYSRRINHEHRLVYTVDDNHIKIASCKYHY | – | stoichiometry N [3]: 0.5 YoeB per YefM

Reference: paper PMC7544224 (Nucleic Acids Research, 2020)
